The text below walks through data of patent US20250152729A1 (CANCER RESEARCH TECHNOLOGY, published 2025).

The target of experiment [1] is T1, cynomolgus SEMA4A expressed on expi293 cells (UniProt ID G7NV79) (cynomolgus, UniProt Q9H3S1 33-761 (human entry)).
T1 construct: Transient transfection in expi293 cells; also called cyno SEMA4A
T1 chain: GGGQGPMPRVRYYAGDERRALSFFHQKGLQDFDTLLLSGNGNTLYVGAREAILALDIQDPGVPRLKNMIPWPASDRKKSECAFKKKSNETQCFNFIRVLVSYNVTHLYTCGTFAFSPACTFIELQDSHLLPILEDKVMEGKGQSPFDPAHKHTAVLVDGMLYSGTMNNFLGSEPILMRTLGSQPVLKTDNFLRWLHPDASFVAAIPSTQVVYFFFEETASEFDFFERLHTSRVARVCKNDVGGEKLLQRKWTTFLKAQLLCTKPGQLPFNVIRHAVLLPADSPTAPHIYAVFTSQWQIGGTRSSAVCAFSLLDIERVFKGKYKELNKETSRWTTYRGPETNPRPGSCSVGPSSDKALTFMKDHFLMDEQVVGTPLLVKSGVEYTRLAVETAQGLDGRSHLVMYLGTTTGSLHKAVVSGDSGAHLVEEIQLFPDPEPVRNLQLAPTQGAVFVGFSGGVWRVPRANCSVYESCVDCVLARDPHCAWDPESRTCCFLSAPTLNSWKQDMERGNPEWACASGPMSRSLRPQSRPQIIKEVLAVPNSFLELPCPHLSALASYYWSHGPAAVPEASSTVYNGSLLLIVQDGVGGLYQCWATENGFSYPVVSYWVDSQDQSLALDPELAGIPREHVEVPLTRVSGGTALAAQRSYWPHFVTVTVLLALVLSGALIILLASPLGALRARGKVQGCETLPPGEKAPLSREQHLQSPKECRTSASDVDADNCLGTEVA
The experiment in a line: Mirrorball direct binding, dilution series on expi293 cells transiently transfected with cynomolgus SEMA4A, anti-human Alexa Fluor 647. From the text:
Hits from the primary screening were re-formatted into the human Alya IgG1 vector and re-expressed and purified as described in section 4.1. In addition, a single clone was identified that contained an Asparagine deamidation motif (Asn Gly) within its VHCDR2. This potential sequence liability was de-risked by synthesising de novo two clonal variant VH genes (Asn Ala and Gln Gly) and cloning these sequences into the human Alya IgG1 expression vector. To determine the specificity profile of each purified human Alya IgG1, a dilution series was tested for binding to human SEMA4A, mouse SEMA4A, cyno SEMA4A, human SEMA4B and mock transfected cells (transient transfections set up in expi 293 cells.) The five assays employed methods described in section 2.3, using the appropriate cells and substituting the un-purified scFv periplasmic preparation with the recombinant human Alya IgG1 dilution series. Data was analysed as Count x median mean intensity (x FLU).

Experiment [2] has as its target T2, recombinant human SEMA4A AviHis10, biotinylated (human, UniProt Q9H3S1 33-683, biotin on the Avi tag (BirA)).
T2 construct: The text says amino acids 33-683 of Q9H3S1 with C-terminal Avi tag and His10 tag; also called avi-SEMA4A-His10
T2 sequence: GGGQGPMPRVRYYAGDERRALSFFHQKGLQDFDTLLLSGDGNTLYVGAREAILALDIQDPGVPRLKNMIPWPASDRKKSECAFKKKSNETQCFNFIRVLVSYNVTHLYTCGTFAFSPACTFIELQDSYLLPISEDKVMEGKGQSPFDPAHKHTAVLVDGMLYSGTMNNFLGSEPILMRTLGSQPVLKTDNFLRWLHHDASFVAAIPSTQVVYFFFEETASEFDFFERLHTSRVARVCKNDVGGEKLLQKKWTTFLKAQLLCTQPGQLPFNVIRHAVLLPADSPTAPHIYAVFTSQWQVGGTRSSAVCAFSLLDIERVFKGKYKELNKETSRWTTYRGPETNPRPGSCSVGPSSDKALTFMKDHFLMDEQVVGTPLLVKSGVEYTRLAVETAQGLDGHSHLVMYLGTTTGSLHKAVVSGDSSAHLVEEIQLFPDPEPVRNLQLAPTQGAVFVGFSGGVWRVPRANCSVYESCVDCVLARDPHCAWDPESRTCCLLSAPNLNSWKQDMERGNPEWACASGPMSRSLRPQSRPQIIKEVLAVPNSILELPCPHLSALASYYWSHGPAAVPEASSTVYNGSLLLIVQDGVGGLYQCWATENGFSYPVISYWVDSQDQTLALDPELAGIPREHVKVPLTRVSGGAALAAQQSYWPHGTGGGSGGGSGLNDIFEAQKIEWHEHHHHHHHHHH
The experiment in a line: BLI (OctetRED), biotinylated SEMA4A on streptavidin tip, IgG as analyte, 1:1 model; KD(observed) IgG; human SEMA4A; IgG, not Fab. How it is done: An Octet Kinetics buffer (PBS containing 0.01% (v/v) BSA and 0.002% (v/v) Tween20) is typically used as the diluent buffer for the analyte samples and as the flow buffer during the dissociation phase. The experimental data is recorded as shift in interference pattern (nm) over time, which is directly proportional to the optical thickness at the biosensor tip, which in turn is an approximate measure of the mass of analyte bound. The proprietary Octet Data Analysis software package can then be used to process data and fit binding models to the data sets. Returned association (ka, M-1 s-1) and dissociation (kd, s-1) rate constants allow calculation of dissociation (KD, M) affinity constants.
The affinity of binding between the analytes (humanised and phage display derived IgGs as human Alya IgG1s and Fabs) and human SEMA4A and cynomolgus SEMA4A, was estimated using assays in which the biotinylated SEMA4A antigen was captured on a streptavidin sensor tip. A fresh sensor tip was used for each measurement and no regeneration was used. A series of dilutions of the lead Fabs and human Alya IgG1s (3.25-240 nM) were individually placed in contact with the ligand surface for a sufficient amount of time to observe sensorgrams that could be fitted to an appropriate binding model with confidence (typically 5 minutes), followed by an appropriate length of dissociation time (typically 10 minutes). […]

B1: mouse 5E3 expressed as human IgG1 Alya (antibody, V domains shown)
VH: QVQLQQPGAELVMPGASVKMSCKASGYTFTDYWMHWVKQRPGQGLEWIGAIDTSDSYTSYNQKFKGKATLTVDESSSTAYMQLSSLTSEDSAVYYCARDYGNFYYYAMDYWGQGTSVTVSS
VL: QAVVTQESALTTSPGETVTLTCRSSTGAVTTSNYANWVQEKPDHLFTGLIGGTNNRAPGVPARFSGSLIGDKAALTITGAQTEDEAIYFCALWYSNHWVFGGGTKLTVL
notes: Mouse variable domains on human IgG1 Alya constant (pEU1.22; 239iCys and S442C, EU numbering); purified, unconjugated; also called 5E3 IgG1 Alya
Regarding B1, the binding result in experiment [1] is recorded as “binds”. Further, in experiment [2], the Kd was no more than 1 nM.

One may read the Kd as the constant that tells how readily two partners part at equilibrium.
